# Patent US20200317768A1 (published 2020)
# Substitutions are numbered along the chain they refer to.
# T1: cynomolgus monkey FcγRIIa1 extracellular domain with C-terminal His-tag (cynomolgus monkey)
# T1 construct: Expressed in FreeStyle 293 cells and purified; also called cyno FcγRIIa1; cynoFcgRIIa1; not shown: C-terminal His-tag
# T1 chain: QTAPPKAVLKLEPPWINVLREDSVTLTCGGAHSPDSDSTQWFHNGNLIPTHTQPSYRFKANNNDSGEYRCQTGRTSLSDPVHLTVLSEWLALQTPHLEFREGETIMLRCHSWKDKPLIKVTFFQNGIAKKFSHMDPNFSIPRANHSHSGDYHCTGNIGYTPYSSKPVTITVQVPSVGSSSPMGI
# T2: cynomolgus monkey FcγRIIb extracellular domain with C-terminal His-tag (cynomolgus monkey)
# T2 construct: Expressed in FreeStyle 293 cells and purified; also called cyno FcγRIIb; cynoFcγRIIb; not shown: C-terminal His-tag
# T2 chain: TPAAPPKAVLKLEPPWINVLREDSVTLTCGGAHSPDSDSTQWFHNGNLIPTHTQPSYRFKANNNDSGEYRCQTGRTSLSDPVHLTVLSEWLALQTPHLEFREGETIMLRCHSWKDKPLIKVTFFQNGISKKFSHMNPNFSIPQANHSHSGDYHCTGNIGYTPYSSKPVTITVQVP
# T3: human FcγRIIb extracellular domain with C-terminal His-tag (human, UniProt P31994 43-217)
# T3 construct: Expressed in FreeStyle 293 cells and purified; also called humanFcgRIIb; not shown: C-terminal His-tag
# T3 sequence: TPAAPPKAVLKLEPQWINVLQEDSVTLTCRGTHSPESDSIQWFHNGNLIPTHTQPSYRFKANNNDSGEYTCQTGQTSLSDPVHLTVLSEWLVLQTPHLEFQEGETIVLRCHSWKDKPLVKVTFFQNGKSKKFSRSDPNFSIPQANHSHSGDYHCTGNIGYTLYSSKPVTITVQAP
# T4: cynomolgus monkey FcγRIIIaS extracellular domain with C-terminal His-tag (cynomolgus monkey, UniProt Q8SPW2 21-206 at identity 1.00))
# T4 construct: Expressed in FreeStyle 293 cells and purified; also called cyno FcγRIIIaS; cynoFcγRIIIaS; not shown: C-terminal His-tag
# T4 chain: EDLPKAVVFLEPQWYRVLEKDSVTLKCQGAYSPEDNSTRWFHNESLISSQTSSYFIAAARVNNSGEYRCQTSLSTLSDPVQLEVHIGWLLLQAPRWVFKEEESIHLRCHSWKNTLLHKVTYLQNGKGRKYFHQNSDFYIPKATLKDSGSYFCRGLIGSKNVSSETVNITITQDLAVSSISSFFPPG
# T5: cynomolgus monkey FcγRIIa2 extracellular domain with C-terminal His-tag (cynomolgus monkey)
# T5 construct: Expressed in FreeStyle 293 cells and purified; also called cyno FcγRIIa2; cynoFcgRIIa2; not shown: C-terminal His-tag
# T5 chain: T1 chain with P95T, T121A, I127K, A128S, K130N, D135N, R142Q
# T6: cynomolgus monkey FcγRIIa3 extracellular domain with C-terminal His-tag (cynomolgus monkey)
# T6 construct: Expressed in FreeStyle 293 cells and purified; also called cyno FcγRIIa3; cynoFcgRIIa3; not shown: C-terminal His-tag
# T6 chain: T1 chain with P95T, T121A, A128S, H133P, D135N
# T7: human FcγRIIaH extracellular domain with C-terminal His-tag (human, UniProt P12318 34-217)
# T7 construct: Expressed in FreeStyle 293 cells and purified; also called human FcγRIIa (type H); FcgRIIaH; not shown: C-terminal His-tag
# T7 sequence: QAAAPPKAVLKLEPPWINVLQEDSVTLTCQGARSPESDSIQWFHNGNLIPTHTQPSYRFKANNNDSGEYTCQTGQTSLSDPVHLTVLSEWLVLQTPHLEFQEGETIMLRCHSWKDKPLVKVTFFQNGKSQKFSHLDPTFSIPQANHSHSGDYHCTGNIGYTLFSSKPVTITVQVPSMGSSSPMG
# T8: human FcγRIIaR extracellular domain with C-terminal His-tag (human, UniProt P12318 34-217)
# T8 construct: Expressed in FreeStyle 293 cells and purified; also called human FcγRIIa (type R); FcgRIIaR; not shown: C-terminal His-tag
# T8 chain: T7 sequence with H134R
# B1: M103205H795-MY198 / M103202L889-SK1 (antibody, human IgG1, kappa)
# heavy: QVTLKESGPVLVKPTETLTLTCTVSGIDLSHDDISWVRQAPGKGLEWVGIISYAGSTYYASWAKGRLTISKDTSKNQVVLTMTNMDPVDTATYYCARGVPAYSHGGDLWGQGTLVTVSSASTKGPSVFPLAPSSKSTSGGTAALGCLVKDYFPEPVTVSWNSGALTSGVHTFPAVLQSSGLYSLSSVVTVPSSSLGTQTYICNVNHKPSNTKVDKKVEPKSCDKTHTCPPCPAPELLNGPVVFLFPPKPKDTLMISRTPEVTCVVVDVSDEDPEVKFNWYVDGVEVHNAKTKPREEQYNSTYRVVSVLTVLHQDWLNGKEYKCKVSNKALPKPIEKTISKAKGQPREPQVYTLPPSREEMTKNQVSLTCLVKGFYPSDIAVEWESNGQPENNYKTTPMVLDSDGSFFLYSKLTVDKSRWQQGNVFSCSVMHEALHNHYTQKSLSLSP
# light: DIVMTQSPATLSLSPGERATLSCTSSQSVYHANWLSWFQQKPGQPPKLLIYWASTLAYGVPSRFSGSGSGTDFTLTISSLQPEDAATYYCAGGYGGGRYAFGQGTKVEIKRTVAAPSVFIFPPSDEQLKSGTASVVCLLNNFYPREAKVQWKVDNALQSGNSQESVTEQDSKDSTYSLSSTLTLSKADYEKHKVYACEVTHQGLSSPVTKSFNRGEC
# notes: Fc variant of M103205H795-SG1, expressed with M103202L889-SK1 as light chain
# B2: M103205H795-MY201 / M103202L889-SK1 (antibody, human IgG1, kappa)
# heavy: B1 heavy with V241S, M398P
# light: B1 light
# notes: Fc variant of M103205H795-SG1, expressed with M103202L889-SK1 as light chain; also called MS1032LO06-MY201
# B3: M103205H795-MY209 / M103202L889-SK1 (antibody, human IgG1, kappa)
# heavy: B1 heavy with V241S, Q297L, K328T, M398P
# light: B1 light
# notes: as for B1
# B4: M103205H795-MY204 / M103202L889-SK1 (antibody, human IgG1, kappa)
# heavy: B1 heavy with D270E, Q297L, M398P
# light: B1 light
# notes: as for B1
# B5: M103205H795-MY206 / M103202L889-SK1 (antibody, human IgG1, kappa)
# heavy: B1 heavy with Q297L, M398P
# light: B1 light
# notes: as for B1
# B6: M103205H795-MY205 / M103202L889-SK1 (antibody, human IgG1, kappa)
# heavy: B1 heavy with V241S, Q297L, M398P
# light: B1 light
# notes: Fc variant of M103205H795-SG1, expressed with M103202L889-SK1 as light chain; also called MS1032LO06-MY205
# B7: M103205H795-MY202 / M103202L889-SK1 (antibody, human IgG1, kappa)
# heavy: B1 heavy with M398P
# light: B1 light
# notes: as for B1
# B8: M103205H795-MY200 / M103202L889-SK1 (antibody, human IgG1, kappa)
# heavy: B1 heavy with D270E, M398P
# light: B1 light
# notes: as for B1
# B9: M103205H795-MY199 / M103202L889-SK1 (antibody, human IgG1, kappa)
# heavy: B1 heavy with V241S, D270E, M398P
# light: B1 light
# notes: as for B1
# B10: M103205H795-MY207 / M103202L889-SK1 (antibody, human IgG1, kappa)
# heavy: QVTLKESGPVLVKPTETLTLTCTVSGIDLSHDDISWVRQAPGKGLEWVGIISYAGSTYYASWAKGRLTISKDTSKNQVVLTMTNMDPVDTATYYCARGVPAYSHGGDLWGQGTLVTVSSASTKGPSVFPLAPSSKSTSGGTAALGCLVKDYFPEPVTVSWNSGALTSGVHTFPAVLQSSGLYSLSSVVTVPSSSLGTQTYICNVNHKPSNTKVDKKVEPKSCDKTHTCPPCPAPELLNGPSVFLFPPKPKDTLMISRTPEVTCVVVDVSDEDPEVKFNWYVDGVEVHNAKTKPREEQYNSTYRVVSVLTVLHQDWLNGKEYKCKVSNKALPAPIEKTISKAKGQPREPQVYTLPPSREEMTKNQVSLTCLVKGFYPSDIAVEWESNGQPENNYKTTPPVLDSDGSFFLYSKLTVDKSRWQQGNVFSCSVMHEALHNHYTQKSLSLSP
# light: B1 light
# notes: as for B1
# Target: T1, cynomolgus monkey FcγRIIa1 …
# Experiment: SPR (Biacore); KD of SG1 divided by KD of the variant for this FcgR;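 also: relative to parent M103205H795-SG1 carrying the SG1 human heavy chain constant region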
# Procedure: (§1) Regarding such interactions, KD values were calculated using the following 1:1 binding model described in BIACORE® T100 Software Handbook BR1006-48 Edition AE.
# (§2) The behavior of interacting molecules according to the 1:1 binding model on BIACORE® can be described by Equation 1: Req=C·R max/(KD+C)+RI, wherein, Req is a plot of steady-state binding levels to analyte concentration. C is concentration, RI is bulk refractive index contribution in the sample, and Rmax is analyte binding capacity of the surface. When this equation is rearranged, KD can be expressed as Equation 2: KD=C·Rmax/(Req−RI)−C. KD can be calculated by substituting the values of Rmax, RI, and C into Equation 1 or Equation 2. From the current measurement conditions, RI=0, C=2 μmol/L can be used.
# (§3) The variants were expressed using M103202L889-SK1 as the light chain and their affinity was analyzed.
row,KD fold (SG1 = 1),Binder
1,7.3 fold,B1
2,2.3 fold,B2
3,5.1 fold,B3
4,2.5 fold,B4
5,4 fold,B5
6,3.5 fold,B6
7,5.3 fold,B7
8,1.9 fold,B8
9,1.7 fold,B9
10,2.1 fold,B10

# Target: T2, cynomolgus monkey FcγRIIb extracellular …
# Experiment: as above
# Procedure: as §1, §2, §3
row,KD fold (SG1 = 1),Binder
1,7.5 fold,B1
2,4.3 fold,B2
3,3.2 fold,B4
4,4 fold,B5
5,7.2 fold,B6
6,3.9 fold,B7
7,1.6 fold,B8
8,1.6 fold,B9
9,2.2 fold,B10

# Target: T3, human FcγRIIb extracellular domain with …
# Experiment: as above
# Procedure: as §1, §2, §3
row,KD fold (SG1 = 1),Binder
1,11 fold,B1
2,4.2 fold,B2
3,9.2 fold,B3
4,3.5 fold,B4
5,5.1 fold,B5
6,8 fold,B6
7,6.5 fold,B7
8,3.3 fold,B8
9,2.4 fold,B9
10,2.9 fold,B10

# Target: T4, cynomolgus monkey FcγRIIIaS …
# Experiment: as above
# Procedure: as §1, §2, §3
row,KD fold (SG1 = 1),Binder
1,0.18 fold,B1
2,0.06 fold,B2
3,0.16 fold,B3
4,0.1 fold,B4
5,0.11 fold,B5
6,0.06 fold,B6
7,0.09 fold,B7
8,0.08 fold,B8
9,0.09 fold,B9
10,0.08 fold,B10

# Target: T9, human FcγRIIIaV extracellular domain with C-terminal His-tag (human, UniProt P08637 17-208)
# T9 construct: Expressed in FreeStyle 293 cells and purified; also called FcgRIIIaV; not shown: C-terminal His-tag
# T9 sequence (P08637 17-208 F176V): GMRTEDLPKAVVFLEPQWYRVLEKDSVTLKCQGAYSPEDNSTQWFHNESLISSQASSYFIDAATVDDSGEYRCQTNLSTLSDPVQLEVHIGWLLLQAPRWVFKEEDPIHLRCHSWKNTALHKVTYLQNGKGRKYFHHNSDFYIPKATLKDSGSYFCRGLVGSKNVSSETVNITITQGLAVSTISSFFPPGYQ
# Experiment: as above
# Procedure: as §1, §2, §3
row,KD fold (SG1 = 1),Binder
1,0.12 fold,B1
2,0.05 fold,B2
3,0.06 fold,B3
4,0.07 fold,B4
5,0.1 fold,B5
6,0.06 fold,B6
7,0.09 fold,B7
8,0.05 fold,B8
9,0.06 fold,B9
10,0.1 fold,B10

# Target: T5, cynomolgus monkey FcγRIIa2 …
# Experiment: as above
# Procedure: as §1, §2, §3
row,KD fold (SG1 = 1),Binder
1,15.5 fold,B1
2,8.6 fold,B2
3,7.4 fold,B3
4,3.6 fold,B4
5,6.5 fold,B5
6,4.6 fold,B6
7,8 fold,B7
8,3.4 fold,B8
9,2.6 fold,B9
10,8.6 fold,B10

# Target: T6, cynomolgus monkey FcγRIIa3 …
# Experiment: as above
# Procedure: as §1, §2, §3
row,KD fold (SG1 = 1),Binder
1,12.1 fold,B1
2,4.4 fold,B2
3,5.9 fold,B3
4,8.8 fold,B4
5,5.7 fold,B5
6,5.7 fold,B6
7,7.7 fold,B7
8,3.4 fold,B8
9,1.4 fold,B9
10,2.5 fold,B10

# Target: T7, human FcγRIIaH extracellular domain …
# Experiment: as above
# Procedure: as §1, §2, §3
row,KD fold (SG1 = 1),Binder
1,1.3 fold,B1
2,0.8 fold,B2
3,1.2 fold,B3
4,0.5 fold,B4
5,0.7 fold,B5
6,1.5 fold,B6
7,0.6 fold,B7
8,0.4 fold,B8
9,0.6 fold,B9
10,0.5 fold,B10

# Target: T8, human FcγRIIaR extracellular domain …
# Experiment: as above
# Procedure: as §1, §2, §3
row,KD fold (SG1 = 1),Binder
1,1.4 fold,B1
2,0.6 fold,B2
3,1.3 fold,B3
4,0.4 fold,B4
5,0.8 fold,B5
6,0.8 fold,B6
7,0.9 fold,B7
8,0.4 fold,B8
9,0.4 fold,B9
10,0.4 fold,B10
